This note sets out measurements from paper PMC9736779, “Properties and Potential Antiproliferative Activity of Thrombin-Binding Aptamer (TBA) Derivatives with One or Two Additional G-Tetrads”.

The series deals with nucleolin (NCL) (Homo sapiens, UniProt P19338 1-710). Briefly: SPR; 70 mM KCl; SPR (Biacore X-100, CM5): 10 mM HEPES, 70 mM KCl, pH 7.4, 25 C; analyte 5-500 uM; two-state reaction fit. Conditions: protein: commercial. Background: SPR reads the build-up and loss of mass on a sensor chip optically.

The Kd is the concentration at which binding is half-saturated.

Sequence of nucleolin (NCL) (P19338 whole entry): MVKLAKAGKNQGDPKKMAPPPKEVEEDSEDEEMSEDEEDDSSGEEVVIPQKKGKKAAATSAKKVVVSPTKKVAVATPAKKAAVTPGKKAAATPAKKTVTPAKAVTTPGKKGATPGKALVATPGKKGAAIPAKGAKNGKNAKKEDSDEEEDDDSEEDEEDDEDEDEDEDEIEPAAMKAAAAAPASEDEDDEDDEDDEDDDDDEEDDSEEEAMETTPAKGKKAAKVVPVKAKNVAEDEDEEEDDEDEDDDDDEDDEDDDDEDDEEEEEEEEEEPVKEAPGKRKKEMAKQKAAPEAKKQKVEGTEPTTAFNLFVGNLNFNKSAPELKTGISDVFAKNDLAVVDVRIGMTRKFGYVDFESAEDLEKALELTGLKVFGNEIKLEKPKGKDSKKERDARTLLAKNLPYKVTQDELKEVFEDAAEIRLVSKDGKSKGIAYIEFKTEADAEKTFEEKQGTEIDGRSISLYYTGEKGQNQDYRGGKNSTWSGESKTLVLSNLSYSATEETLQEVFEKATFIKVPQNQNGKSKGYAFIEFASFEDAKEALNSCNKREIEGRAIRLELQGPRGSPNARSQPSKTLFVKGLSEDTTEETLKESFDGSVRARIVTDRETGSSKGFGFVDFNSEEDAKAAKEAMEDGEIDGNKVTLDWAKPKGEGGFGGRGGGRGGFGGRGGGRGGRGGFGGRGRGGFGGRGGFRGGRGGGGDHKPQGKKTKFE

For GGTTGGTGTGGTTGG (structured_DNA) [TBA], the Kd (antiparallel G4, intramolecular) came to 62.5 µM. In the case of GGGTTGGGTGTGGGTTGGG (structured_DNA) [TBAG3], the Kd (G4, one extra G-tetrad, intramolecular) was determined as 1290 µM. The molecule GGGGTTGGGGTGTGGGGTTGGGG (structured_DNA) [TBAG4] came in with a Kd (antiparallel G4, two extra G-tetrads, intramolecular) of 13.5 µM.
